Tests used:
hippocampal neurons [1] = experiment: Cell survival assay (MTT), embryonic hippocampal neurons; format: cell-based, rat; details: 5 days in culture
Method: (§1) Hippocampal neurons were prepared from 18-day rat embryos as described (Lochter, A., et al (1991); Brewer, G. J., et al (1993)). Neurons were re-suspended and plated in serum-free Dulbecco's modified Eagle's medium/Nutrient Mix F12 (Life Technologies, Inc.) supplemented with N2 components, 33 mM D-glucose, 1 mM pyruvate, 1 mg/ml BSA, and 5 mM Hepes.

hippocampal neurons [2] = experiment: Neurite outgrowth assay, hippocampal neurons; format: cell-based, rat; details: hippocampal neurons from 18-day embryos
Method: The tissue culture wells and glass cover slips (1.1 cm diameter) were incubated overnight at 4° C. with 0.01% poly-L-lysine (PLL) and washed three times with distilled water. L1-Fc or CHL1-Fc diluted in Ca/Mg-free Hank's Balanced Salt Solution were applied overnight at 4° C., at the concentrations indicated in the text. The wells and coverslips were washed twice with Hank's and once with seeding medium just before plating cells.
as §1
Cerebellar granule cells and hippocampal neurons were seeded into pro-treated 96-well tissue culture plates at a density of 1×10^4 cells or 5×10^3 cells per well, respectively, in 100 μl medium. Soluble fusion proteins were added, when used, 2 hours after seeding the cells, to avoid effects on initial adhesion. […] The lengths of individual neurite were analyzed and quantified with an IBAS image analysis system (Kontron). […] For each cell measured, the total length of all neurites was determined. In each experiment, 50 cells in each of three wells were analyzed. […]

cerebellar granule cells = details: 5 days in culture

B1: CHL1-Fc: extracellular domain of mouse CHL1 fused to the Fc portion of human immunoglobulin IgG1 (protein)
chain: EIPLSVQQVPTIVKQSYVQVAFPFDEYFQIECEAKGNPEPIFSWTKDDKPFDLSDPRIIAANNSGTFKIPNEGHISHFQGKYRCFASNRLGTAVSEEIEFIVPGVPKFPKEKIEPIDVEEGDSIVLPCNPPKGLPPLHIYWMNIELEHIEQDERVYMSQRGDLYFANVEENDSRNDYCCFAAFPKLRTIVQKMPMKLTVNSSNSIKQRKPKLLLPPAQMGSLSAKTVLKGDTLLLECFAEGLPTPHIQWSKPGSELPEGRATIEVHEKTLKIENISYQDRGNYRCTANNLLGKASHDFHVTVEEPPRWKKKPQSAVYSTGSSGILLCEAEGEPQPTIKWRLNGLPIEKHPFPGDFMFPREISFTNLLFNHTGVYQCEASNIHGTILANANIDVIDVIPLIKTKNEENYATVVGYSAFLHCEYFASPKATVVWEVADETHPLEGDRYHTHENGTLEIYRTTEEDAGSYSCWVDNAMGKAVITANLDIRNATKLRVSPKNPRIPKSHVLELYCESQCDSHLKHSLKLSWSKDGEAFEMNGTEDGRIVIDGAYLTISNITAEDQGVYSCSAQTSLDSTSEKTQVTVLGVPDPPETFTCQKDKNRSVRLLREAGDDHNSKSASTIVEFEGNREEPGKWEELTRVQGEETDVVLSLAPYVRYQFRVTAVNEVGRSHASLPSDHHETPPAAPDKNPQNIRVQASQPKEMIIKWEPLKSMEQNGPGLEYKVSWKPQGAPEEWEEEIVTNHTLRVMTPTVYAPYDVKVQAINQLGSSPDPQPVTLYSGEDYPSTAPVIQRVDVMNSTLVKVTWSSIPKETVHGLLRGYQINWWKTKSLLDGRTHPKEVNILRFSGQRNSGMVPSLDPFSEFHLTVLAYNSKGAGPESEPYIFQTPEGVPEQPSFLKVIKVDKDTATLSWGLPKKLNGNLTGYLLQYQIINDTYELGELNEINVTTPSKSSWHLSNLNSTTKYKFYLRACTSRGCGKPISEEGATLGEGSKGIRKITEGVNVTQKIHPVEVLVPGAEHIVHLMTKNWGDNDSIFQDVIETRGREYAGLYDDISTQGW
modifications: left off: a dimerising Fc or GST
notes: extracellular domain of mouse CHL1 fused to the Fc portion of human immunoglobulin IgG1
Hippocampal neurons [1]
  concentration of maximal effect on survival: 1 µg/mL
  survival: enhanced survival
Hippocampal neurons [2]
  neurite outgrowth: a stimulation was observed
Cerebellar granule cells
  morphological features of cultures: denser, generally healthier-looking cultures

Reference: patent publication US6576607B1, “Methods using CNS neurite outgrowth modulators” (Acorda Therapeutics, priority 1995, dated 2003)
